B1: Serine/threonine-protein phosphatase PP1-2 (Saccharomyces cerevisiae), P32598 (parent)
chain: MDSQPVDVDNIIDRLLEVRGSKPGQQVDLEENEIRYLCSKARSIFIKQPILLELEAPIKICGDIHGQYYDLLRLFEYGGFPPESNYLFLGDYVDRGKQSLETICLLLAYKIKYPENFFILRGNHECASINRIYGFYDECKRRYNIKLWKTFTDCFNCLPIAAIIDEKIFCMHGGLSPDLNSMEQIRRVMRPTDIPDVGLLCDLLWSDPDKDIVGWSENDRGVSFTFGPDVVNRFLQKQDMELICRAHQVVEDGYEFFSKRQLVTLFSAPNYCGEFDNAGAMMSVDESLLCSFQILKPAQKSLPRQAGGRKKK
partner: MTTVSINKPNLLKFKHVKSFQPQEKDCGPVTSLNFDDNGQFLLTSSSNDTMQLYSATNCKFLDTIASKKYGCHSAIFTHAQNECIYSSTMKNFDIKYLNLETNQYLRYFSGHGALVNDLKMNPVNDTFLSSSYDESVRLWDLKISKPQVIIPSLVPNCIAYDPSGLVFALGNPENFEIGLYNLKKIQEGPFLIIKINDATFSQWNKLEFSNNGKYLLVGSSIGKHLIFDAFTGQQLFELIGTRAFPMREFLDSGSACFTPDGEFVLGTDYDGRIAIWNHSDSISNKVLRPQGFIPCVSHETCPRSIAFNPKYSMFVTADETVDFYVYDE
B2: Serine/threonine-protein phosphatase PP1-2 (Saccharomyces cerevisiae), P32598 (parent)
chain: B1 chain
B3: Serine/threonine-protein phosphatase PP1-2 (Saccharomyces cerevisiae), P32598 (parent)
chain: B1 chain
partner: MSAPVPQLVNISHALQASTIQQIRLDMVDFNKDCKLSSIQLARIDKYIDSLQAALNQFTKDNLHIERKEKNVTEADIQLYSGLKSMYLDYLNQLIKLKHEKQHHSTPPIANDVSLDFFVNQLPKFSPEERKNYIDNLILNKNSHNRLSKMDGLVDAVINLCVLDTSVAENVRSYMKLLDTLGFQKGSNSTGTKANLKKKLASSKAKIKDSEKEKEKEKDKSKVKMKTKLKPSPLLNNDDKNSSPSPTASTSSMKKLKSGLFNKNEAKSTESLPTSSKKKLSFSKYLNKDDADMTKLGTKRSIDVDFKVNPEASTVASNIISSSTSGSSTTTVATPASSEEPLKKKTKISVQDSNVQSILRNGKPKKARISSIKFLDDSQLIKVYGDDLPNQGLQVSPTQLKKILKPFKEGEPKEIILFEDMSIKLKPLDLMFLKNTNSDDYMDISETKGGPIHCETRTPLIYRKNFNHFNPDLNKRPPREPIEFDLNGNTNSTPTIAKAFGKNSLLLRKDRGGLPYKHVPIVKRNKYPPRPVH
B4: RNA end formation protein 2 (Saccharomyces cerevisiae), P42073 (parent)
chain: B3 partner

Variants of: B1
Settings: with swd2_yeast SWD2, P36104

effect of a mutation on the interaction	Variant
disrupting interaction strength	MDSQPVDVDNIIDRLLEVRGSKPGQQVDLEENEIRYLCSKARSIFIKQPILLELEAPIKICGDIHGQYYDLLRLFEYGGFPPESNYLFLGDYVDRGKQSLETICLLLAYKIKYPENFFILRGNHECASINRIYGFYDECKRRYNIKLWKTFTDCFNCLPIAAIIDEKIFCMHGGLSPDLNSMEQIRRVMRPTDIPDVGLLCDLLWSDPDKDIVGWSENDRGVSFTFGPDVVNRFLQKQDMELICRAHQVVEDGYEAFSKRQLVTLFSAPNYCGEFDNAGAMMSVDESLLCSAQILKPAQKSLPRQAGGRKKK [F256A;F292A]
disrupting interaction strength	MDSQPVDVDNIIDRLLEVRGSKPGQQVDLEENEIRYLCSKARSIFIKQPILLELEAPIKICGDIHGQYYDLLRLFEYGGFPPESNYLFLGDYVDRGKQSLETICLLLAYKIKYPENFFILRGNHECASINRIYGFYDECKRRYNIKLWKTFTDCFNCLPIAAIIDEKIFCMHGGLSPDLNSMEQIRRVMRPTDIPDVGLLCDLLWSDPDKDIVGWSENDRGVSFTFGPDVVNRFLQKQDMELICRAHQVVEDGYEAFSKRQLVTLFSAPNYCGEFDNAGAMMSVDESLLCSFQILKPAQKSLPRQAGGRKKK [F256A]
decreasing interaction strength	MDSQPVDVDNIIDRLLEVRGSKPGQQVDLEENEIRYLCSKARSIFIKQPILLELEAPIKICGDIHGQYYDLLRLFEYGGFPPESNYLFLGDYVDRGKQSLETICLLLAYKIKYPENFFILRGNHECASINRIYGFYDECKRRYNIKLWKTFTDCFNCLPIAAIIDEKIFCMHGGLSPDLNSMEQIRRVMRPTDIPDVGLLCDLLWSDPDKDIVGWSENDRGVSFTFGPDVVNRFLQKQDMELICRAHQVVEDGYEFFSKRQLVTLFSAPNYCGEFDNAGAMMSVDESLLCSAQILKPAQKSLPRQAGGRKKK [F292A]

Variants of: B2
Settings: with sen1_yeast SEN1, Q00416
Sequence of sen1_yeast SEN1, Q00416 (Q00416 whole entry): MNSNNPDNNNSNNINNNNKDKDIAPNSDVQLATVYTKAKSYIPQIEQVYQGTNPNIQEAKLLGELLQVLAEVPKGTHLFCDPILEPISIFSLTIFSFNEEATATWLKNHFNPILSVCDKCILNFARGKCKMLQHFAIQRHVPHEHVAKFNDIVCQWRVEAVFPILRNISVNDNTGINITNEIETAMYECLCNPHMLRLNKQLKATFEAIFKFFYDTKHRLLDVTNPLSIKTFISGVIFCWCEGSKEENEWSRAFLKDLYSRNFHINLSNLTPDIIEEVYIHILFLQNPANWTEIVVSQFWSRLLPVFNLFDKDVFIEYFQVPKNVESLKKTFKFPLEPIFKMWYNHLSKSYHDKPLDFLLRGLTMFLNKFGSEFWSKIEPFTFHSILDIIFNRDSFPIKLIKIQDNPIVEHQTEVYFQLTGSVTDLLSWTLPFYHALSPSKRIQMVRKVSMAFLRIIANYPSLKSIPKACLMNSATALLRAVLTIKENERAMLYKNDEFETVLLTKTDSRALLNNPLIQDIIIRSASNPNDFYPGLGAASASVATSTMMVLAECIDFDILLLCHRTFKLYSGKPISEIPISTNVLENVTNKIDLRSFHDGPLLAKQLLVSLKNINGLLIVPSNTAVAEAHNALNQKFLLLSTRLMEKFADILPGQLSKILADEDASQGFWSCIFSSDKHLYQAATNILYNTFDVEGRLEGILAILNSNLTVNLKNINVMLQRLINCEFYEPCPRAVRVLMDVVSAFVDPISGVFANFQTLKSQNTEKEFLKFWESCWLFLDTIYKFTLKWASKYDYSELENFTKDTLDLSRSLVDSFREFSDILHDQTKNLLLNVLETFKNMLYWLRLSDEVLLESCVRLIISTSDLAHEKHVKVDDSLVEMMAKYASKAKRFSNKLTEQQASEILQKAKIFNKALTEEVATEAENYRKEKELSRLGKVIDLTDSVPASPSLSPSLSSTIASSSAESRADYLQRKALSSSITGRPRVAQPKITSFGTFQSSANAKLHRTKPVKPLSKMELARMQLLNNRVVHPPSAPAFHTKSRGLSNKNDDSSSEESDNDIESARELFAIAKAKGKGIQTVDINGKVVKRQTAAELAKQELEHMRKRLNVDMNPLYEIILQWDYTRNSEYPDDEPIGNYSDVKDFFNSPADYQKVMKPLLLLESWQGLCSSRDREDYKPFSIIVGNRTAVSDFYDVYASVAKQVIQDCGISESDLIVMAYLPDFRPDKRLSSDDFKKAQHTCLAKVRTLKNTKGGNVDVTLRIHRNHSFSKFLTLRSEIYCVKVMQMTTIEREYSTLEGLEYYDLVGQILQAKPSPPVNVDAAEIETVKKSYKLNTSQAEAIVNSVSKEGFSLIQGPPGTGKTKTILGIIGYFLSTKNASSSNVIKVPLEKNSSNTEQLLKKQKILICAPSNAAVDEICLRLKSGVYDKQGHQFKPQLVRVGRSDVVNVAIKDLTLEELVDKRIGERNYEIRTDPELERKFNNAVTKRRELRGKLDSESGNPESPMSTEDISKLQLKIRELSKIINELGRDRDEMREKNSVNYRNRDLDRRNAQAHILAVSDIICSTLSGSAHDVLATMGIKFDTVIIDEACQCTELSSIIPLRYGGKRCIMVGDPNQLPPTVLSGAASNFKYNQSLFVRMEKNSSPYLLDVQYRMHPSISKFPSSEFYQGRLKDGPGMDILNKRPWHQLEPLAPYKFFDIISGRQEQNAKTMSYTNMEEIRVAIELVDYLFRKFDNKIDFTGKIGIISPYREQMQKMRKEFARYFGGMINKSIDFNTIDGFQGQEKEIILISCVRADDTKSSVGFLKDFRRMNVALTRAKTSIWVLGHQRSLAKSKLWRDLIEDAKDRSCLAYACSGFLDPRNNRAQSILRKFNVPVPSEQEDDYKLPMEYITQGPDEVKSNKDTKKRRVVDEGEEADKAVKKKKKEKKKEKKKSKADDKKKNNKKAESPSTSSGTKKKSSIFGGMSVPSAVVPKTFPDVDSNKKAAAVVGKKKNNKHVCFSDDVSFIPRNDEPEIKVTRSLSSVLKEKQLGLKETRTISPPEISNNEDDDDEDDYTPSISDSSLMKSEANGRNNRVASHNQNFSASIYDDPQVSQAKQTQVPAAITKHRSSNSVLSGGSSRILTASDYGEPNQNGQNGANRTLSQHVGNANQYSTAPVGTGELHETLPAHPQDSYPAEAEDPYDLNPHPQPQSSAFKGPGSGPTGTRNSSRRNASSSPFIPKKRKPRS

effect of a mutation on the interaction	Variant
disrupting interaction strength	MDSQPVDVDNIIDRLLEVRGSKPGQQVDLEENEIRYLCSKARSIFIKQPILLELEAPIKICGDIHGQYYDLLRLFEYGGFPPESNYLFLGDYVDRGKQSLETICLLLAYKIKYPENFFILRGNHECASINRIYGFYDECKRRYNIKLWKTFTDCFNCLPIAAIIDEKIFCMHGGLSPDLNSMEQIRRVMRPTDIPDVGLLCDLLWSDPDKDIVGWSENDRGVSFTFGPDVVNRFLQKQDMELICRAHQVVEDGYEAFSKRQLVTLFSAPNYCGEFDNAGAMMSVDESLLCSAQILKPAQKSLPRQAGGRKKK [F256A;F292A]
decreasing interaction strength	MDSQPVDVDNIIDRLLEVRGSKPGQQVDLEENEIRYLCSKARSIFIKQPILLELEAPIKICGDIHGQYYDLLRLFEYGGFPPESNYLFLGDYVDRGKQSLETICLLLAYKIKYPENFFILRGNHECASINRIYGFYDECKRRYNIKLWKTFTDCFNCLPIAAIIDEKIFCMHGGLSPDLNSMEQIRRVMRPTDIPDVGLLCDLLWSDPDKDIVGWSENDRGVSFTFGPDVVNRFLQKQDMELICRAHQVVEDGYEFFSKRQLVTLFSAPNYCGEFDNAGAMMSVDESLLCSAQILKPAQKSLPRQAGGRKKK [F292A]
disrupting interaction strength	MDSQPVDVDNIIDRLLEVRGSKPGQQVDLEENEIRYLCSKARSIFIKQPILLELEAPIKICGDIHGQYYDLLRLFEYGGFPPESNYLFLGDYVDRGKQSLETICLLLAYKIKYPENFFILRGNHECASINRIYGFYDECKRRYNIKLWKTFTDCFNCLPIAAIIDEKIFCMHGGLSPDLNSMEQIRRVMRPTDIPDVGLLCDLLWSDPDKDIVGWSENDRGVSFTFGPDVVNRFLQKQDMELICRAHQVVEDGYEAFSKRQLVTLFSAPNYCGEFDNAGAMMSVDESLLCSFQILKPAQKSLPRQAGGRKKK [F256A]

Variants of: B3
Settings: with ref2_yeast REF2, P42073

effect of a mutation on the interaction	Variant
decreasing interaction strength	MDSQPVDVDNIIDRLLEVRGSKPGQQVDLEENEIRYLCSKARSIFIKQPILLELEAPIKICGDIHGQYYDLLRLFEYGGFPPESNYLFLGDYVDRGKQSLETICLLLAYKIKYPENFFILRGNHECASINRIYGFYDECKRRYNIKLWKTFTDCFNCLPIAAIIDEKIFCMHGGLSPDLNSMEQIRRVMRPTDIPDVGLLCDLLWSDPDKDIVGWSENDRGVSFTFGPDVVNRFLQKQDMELICRAHQVVEDGYEFFSKRQLVTLFSAPNYCGEFDNAGAMMSVDESLLCSAQILKPAQKSLPRQAGGRKKK [F292A]
disrupting interaction strength	MDSQPVDVDNIIDRLLEVRGSKPGQQVDLEENEIRYLCSKARSIFIKQPILLELEAPIKICGDIHGQYYDLLRLFEYGGFPPESNYLFLGDYVDRGKQSLETICLLLAYKIKYPENFFILRGNHECASINRIYGFYDECKRRYNIKLWKTFTDCFNCLPIAAIIDEKIFCMHGGLSPDLNSMEQIRRVMRPTDIPDVGLLCDLLWSDPDKDIVGWSENDRGVSFTFGPDVVNRFLQKQDMELICRAHQVVEDGYEAFSKRQLVTLFSAPNYCGEFDNAGAMMSVDESLLCSAQILKPAQKSLPRQAGGRKKK [F256A;F292A]
disrupting interaction strength	MDSQPVDVDNIIDRLLEVRGSKPGQQVDLEENEIRYLCSKARSIFIKQPILLELEAPIKICGDIHGQYYDLLRLFEYGGFPPESNYLFLGDYVDRGKQSLETICLLLAYKIKYPENFFILRGNHECASINRIYGFYDECKRRYNIKLWKTFTDCFNCLPIAAIIDEKIFCMHGGLSPDLNSMEQIRRVMRPTDIPDVGLLCDLLWSDPDKDIVGWSENDRGVSFTFGPDVVNRFLQKQDMELICRAHQVVEDGYEAFSKRQLVTLFSAPNYCGEFDNAGAMMSVDESLLCSFQILKPAQKSLPRQAGGRKKK [F256A]

Variants of: B4
Settings: with pp12_yeast GLC7, P32598

effect of a mutation on the interaction	Variant
disrupting interaction strength	MSAPVPQLVNISHALQASTIQQIRLDMVDFNKDCKLSSIQLARIDKYIDSLQAALNQFTKDNLHIERKEKNVTEADIQLYSGLKSMYLDYLNQLIKLKHEKQHHSTPPIANDVSLDFFVNQLPKFSPEERKNYIDNLILNKNSHNRLSKMDGLVDAVINLCVLDTSVAENVRSYMKLLDTLGFQKGSNSTGTKANLKKKLASSKAKIKDSEKEKEKEKDKSKVKMKTKLKPSPLLNNDDKNSSPSPTASTSSMKKLKSGLFNKNEAKSTESLPTSSKKKLSFSKYLNKDDADMTKLGTKRSIDVDFKVNPEASTVASNIISSSTSGSSTTTVATPASSEEPLKKKTKISVQDSNVQSILRNGKPKKARISSIKALDDSQLIKVYGDDLPNQGLQVSPTQLKKILKPFKEGEPKEIILFEDMSIKLKPLDLMFLKNTNSDDYMDISETKGGPIHCETRTPLIYRKNFNHFNPDLNKRPPREPIEFDLNGNTNSTPTIAKAFGKNSLLLRKDRGGLPYKHVPIVKRNKYPPRPVH [F374A]

— IntAct's records for PubMed 18342605
